# System: Escherichia coli TOP10
# Test: shrunken log2 fold change of peptide-encoding DNA abundance (4.5 h post-induction vs induction); higher = less antimicrobial activity (less host growth inhibition)
# Conditions: time post-induction: 4.5 h; library: site-saturation at positions 5, 18, 19, 20
# 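Also: peptides expressed intracellularly from a pBAD plasmid library in pooled LB shake-flask culture, induced with 0.3% L-arabinose, DNA abundance read by NGS, three biological replicates, DESeq2 with apeglm shrinkage.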
row,Sequence,shrunken log2 fold change
1,RRIRRRPPRLPRPRPRPPMSPRP,0.142
2,RRIRRRPPRLPRPRPRPPQHPRP,1.2
3,RRIRRRPPRLPRPRPRPPRCPRP,1.49
4,RRIRRRPPRLPRPRPRPPRKPRP,1.5
5,RRIRRRPPRLPRPRPRPPRSPRP,0.904
6,RRIRRRPPRLPRPRPRPPSLPRP,0.522
7,RRIRRRPPRLPRPRPRPPTWPRP,0.336
8,RRIRRRPPRLPRPRPRPPWDPRP,0.577
9,RRIRRRPPRLPRPRPRPPWFPRP,0.479
10,RRIRRRPPRLPRPRPRPPYFPRP,0.442
11,RRIRRRPPRLPRPRPRPQAQPRP,0.0393
12,RRIRRRPPRLPRPRPRPQCHPRP,-0.0986
13,RRIRRRPPRLPRPRPRPQDKPRP,-0.289
14,RRIRRRPPRLPRPRPRPQDMPRP,0.0973
15,RRIRRRPPRLPRPRPRPQDWPRP,0.171
16,RRIRRRPPRLPRPRPRPQEKPRP,0.0332
17,RRIRRRPPRLPRPRPRPQFKPRP,-0.145
18,RRIRRRPPRLPRPRPRPQGEPRP,0.373
19,RRIRRRPPRLPRPRPRPQGTPRP,0.294
20,RRIRRRPPRLPRPRPRPQHEPRP,0.343
21,RRIRRRPPRLPRPRPRPQIDPRP,0.332
22,RRIRRRPPRLPRPRPRPQIIPRP,-0.0755
23,RRIRRRPPRLPRPRPRPQINPRP,0.0135
24,RRIRRRPPRLPRPRPRPQLHPRP,-0.00676
25,RRIRRRPPRLPRPRPRPQLNPRP,0.159

row,Sequence,shrunken log2 fold change
1,RRIRRRPPRLPRPRPRPQLSPRP,0.976
2,RRIRRRPPRLPRPRPRPQMNPRP,-0.107
3,RRIRRRPPRLPRPRPRPQMRPRP,1.05
4,RRIRRRPPRLPRPRPRPQMSPRP,0.0441
5,RRIRRRPPRLPRPRPRPQMTPRP,0.238
6,RRIRRRPPRLPRPRPRPQNDPRP,-0.212
7,RRIRRRPPRLPRPRPRPQPGPRP,0.264
8,RRIRRRPPRLPRPRPRPQRRPRP,0.482
9,RRIRRRPPRLPRPRPRPQTHPRP,0.361
10,RRIRRRPPRLPRPRPRPQTRPRP,0.511
11,RRIRRRPPRLPRPRPRPQVLPRP,0.0646
12,RRIRRRPPRLPRPRPRPQYMPRP,-0.234
13,RRIRRRPPRLPRPRPRPQYNPRP,-0.224
14,RRIRRRPPRLPRPRPRPRAIPRP,0.405
15,RRIRRRPPRLPRPRPRPRAQPRP,0.5
16,RRIRRRPPRLPRPRPRPRDGPRP,0.731
17,RRIRRRPPRLPRPRPRPRECPRP,-0.12
18,RRIRRRPPRLPRPRPRPREYPRP,0.2
19,RRIRRRPPRLPRPRPRPRFMPRP,0.055
20,RRIRRRPPRLPRPRPRPRFSPRP,0.425
21,RRIRRRPPRLPRPRPRPRGHPRP,2.95
22,RRIRRRPPRLPRPRPRPRGLPRP,0.396
23,RRIRRRPPRLPRPRPRPRHYPRP,0.279
24,RRIRRRPPRLPRPRPRPRISPRP,0.482
25,RRIRRRPPRLPRPRPRPRIVPRP,0.00997

row,Sequence,shrunken log2 fold change
1,RRIRRRPPRLPRPRPRPRKAPRP,0.885
2,RRIRRRPPRLPRPRPRPRKIPRP,0.405
3,RRIRRRPPRLPRPRPRPRLDPRP,0.347
4,RRIRRRPPRLPRPRPRPRMGPRP,0.136
5,RRIRRRPPRLPRPRPRPRPTPRP,0.821
6,RRIRRRPPRLPRPRPRPRQCPRP,0.596
7,RRIRRRPPRLPRPRPRPRRPPRP,0.639
8,RRIRRRPPRLPRPRPRPRSFPRP,0.401
9,RRIRRRPPRLPRPRPRPRSWPRP,0.648
10,RRIRRRPPRLPRPRPRPRVAPRP,0.875
11,RRIRRRPPRLPRPRPRPRYDPRP,0.0442
12,RRIRRRPPRLPRPRPRPRYGPRP,0.0155
13,RRIRRRPPRLPRPRPRPSALPRP,0.392
14,RRIRRRPPRLPRPRPRPSDMPRP,-0.463
15,RRIRRRPPRLPRPRPRPSEVPRP,1.94
16,RRIRRRPPRLPRPRPRPSFTPRP,0.0475
17,RRIRRRPPRLPRPRPRPSGEPRP,0.387
18,RRIRRRPPRLPRPRPRPSGLPRP,0.00401
19,RRIRRRPPRLPRPRPRPSHDPRP,-0.00919
20,RRIRRRPPRLPRPRPRPSKMPRP,0.335
21,RRIRRRPPRLPRPRPRPSKRPRP,-0.0523
22,RRIRRRPPRLPRPRPRPSLAPRP,0.89
23,RRIRRRPPRLPRPRPRPSLDPRP,0.34
24,RRIRRRPPRLPRPRPRPSMRPRP,0.557
25,RRIRRRPPRLPRPRPRPSNAPRP,0.204

row,Sequence,shrunken log2 fold change
1,RRIRRRPPRLPRPRPRPSNCPRP,-0.252
2,RRIRRRPPRLPRPRPRPSNNPRP,-0.303
3,RRIRRRPPRLPRPRPRPSNYPRP,-0.169
4,RRIRRRPPRLPRPRPRPSSTPRP,0.197
5,RRIRRRPPRLPRPRPRPSVAPRP,0.478
6,RRIRRRPPRLPRPRPRPSVGPRP,0.171
7,RRIRRRPPRLPRPRPRPSVSPRP,-0.0175
8,RRIRRRPPRLPRPRPRPSVWPRP,0.703
9,RRIRRRPPRLPRPRPRPSWAPRP,0.157
10,RRIRRRPPRLPRPRPRPSYDPRP,-0.434
11,RRIRRRPPRLPRPRPRPSYHPRP,-0.368
12,RRIRRRPPRLPRPRPRPSYMPRP,-0.257
13,RRIRRRPPRLPRPRPRPTDSPRP,0.485
14,RRIRRRPPRLPRPRPRPTENPRP,0.464
15,RRIRRRPPRLPRPRPRPTEQPRP,-0.0468
16,RRIRRRPPRLPRPRPRPTERPRP,0.409
17,RRIRRRPPRLPRPRPRPTEWPRP,0.446
18,RRIRRRPPRLPRPRPRPTFQPRP,0.204
19,RRIRRRPPRLPRPRPRPTGCPRP,0.0105
20,RRIRRRPPRLPRPRPRPTGMPRP,0.906
21,RRIRRRPPRLPRPRPRPTGSPRP,0.302
22,RRIRRRPPRLPRPRPRPTHVPRP,0.427
23,RRIRRRPPRLPRPRPRPTIRPRP,0.129
24,RRIRRRPPRLPRPRPRPTIVPRP,-0.111
25,RRIRRRPPRLPRPRPRPTLYPRP,0.595

row,Sequence,shrunken log2 fold change
1,RRIRRRPPRLPRPRPRPTMIPRP,-0.195
2,RRIRRRPPRLPRPRPRPTNDPRP,0.263
3,RRIRRRPPRLPRPRPRPTNFPRP,-0.125
4,RRIRRRPPRLPRPRPRPTPCPRP,0.774
5,RRIRRRPPRLPRPRPRPTPDPRP,0.72
6,RRIRRRPPRLPRPRPRPTPNPRP,0.945
7,RRIRRRPPRLPRPRPRPTQKPRP,0.788
8,RRIRRRPPRLPRPRPRPTQQPRP,0.707
9,RRIRRRPPRLPRPRPRPTQTPRP,0.338
10,RRIRRRPPRLPRPRPRPTRFPRP,1.08
11,RRIRRRPPRLPRPRPRPTRKPRP,0.498
12,RRIRRRPPRLPRPRPRPTRSPRP,0.341
13,RRIRRRPPRLPRPRPRPTRVPRP,0.952
14,RRIRRRPPRLPRPRPRPTSTPRP,0.158
15,RRIRRRPPRLPRPRPRPTSVPRP,0.227
16,RRIRRRPPRLPRPRPRPTTGPRP,-0.00353
17,RRIRRRPPRLPRPRPRPTTQPRP,0.356
18,RRIRRRPPRLPRPRPRPTVDPRP,0.615
19,RRIRRRPPRLPRPRPRPTVQPRP,0.113
20,RRIRRRPPRLPRPRPRPTVRPRP,-0.00514
21,RRIRRRPPRLPRPRPRPTWMPRP,0.174
22,RRIRRRPPRLPRPRPRPTYAPRP,0.218
23,RRIRRRPPRLPRPRPRPVEAPRP,0.118
24,RRIRRRPPRLPRPRPRPVERPRP,-0.049
25,RRIRRRPPRLPRPRPRPVESPRP,0.126

row,Sequence,shrunken log2 fold change
1,RRIRRRPPRLPRPRPRPVFHPRP,0.258
2,RRIRRRPPRLPRPRPRPVFIPRP,-0.0708
3,RRIRRRPPRLPRPRPRPVFVPRP,0.292
4,RRIRRRPPRLPRPRPRPVGRPRP,0.472
5,RRIRRRPPRLPRPRPRPVHEPRP,0.381
6,RRIRRRPPRLPRPRPRPVHRPRP,-0.0888
7,RRIRRRPPRLPRPRPRPVICPRP,0.164
8,RRIRRRPPRLPRPRPRPVIEPRP,0.119
9,RRIRRRPPRLPRPRPRPVKHPRP,0.25
10,RRIRRRPPRLPRPRPRPVLHPRP,0.0722
11,RRIRRRPPRLPRPRPRPVLPPRP,0.584
12,RRIRRRPPRLPRPRPRPVMHPRP,0.0548
13,RRIRRRPPRLPRPRPRPVNMPRP,-0.156
14,RRIRRRPPRLPRPRPRPVPEPRP,0.543
15,RRIRRRPPRLPRPRPRPVPWPRP,0.573
16,RRIRRRPPRLPRPRPRPVQAPRP,0.464
17,RRIRRRPPRLPRPRPRPVRHPRP,0.247
18,RRIRRRPPRLPRPRPRPVRRPRP,0.619
19,RRIRRRPPRLPRPRPRPVRYPRP,0.181
20,RRIRRRPPRLPRPRPRPVSLPRP,-0.15
21,RRIRRRPPRLPRPRPRPVSYPRP,0.241
22,RRIRRRPPRLPRPRPRPVTGPRP,0.0301
23,RRIRRRPPRLPRPRPRPVVAPRP,0.43
24,RRIRRRPPRLPRPRPRPVVGPRP,0.487
25,RRIRRRPPRLPRPRPRPVWAPRP,0.339
